# Experimental data taken from patent US7033999B2, “Nitrosated and nitrosylated heme proteins” (Brigham and Women's Hospital, priority 1991, dated 2006).
# Experiments:
# [1] = Amidolytic activity against chromogenic substrate S2288; assay type: biochemical; settings: S2288 hydrolysis; for Km: 25° C., TBS
# Method: The amidolytic activities of t-PA and its S-nitrosylated derivative were measured using the relatively specific chromogenic substrate, S2288. Substrate hydrolysis was measured spectrophotometrically at 405 nm with a Gilford Response UV/Vis Spectrophotometer (CIBA-Corning, Oberlin, Ohio). Activity was measured at 25° C. in TBS using substrate concentrations varying from 0.1–2.0 mM and t-PA at a concentration of 100 nM. Kinetic parameters were determined from initial rates by double reciprocal plot analysis. The assessment of inhibition of t-PA and S—NO-t-PA enzymatic activity by PAI-1 was made at an enzyme concentration of 10 nM and a molar ratio of t-PA to active PAI-1 of 1.0. The degree of inhibition was determined relative to the initial rates in the absence of the inhibitor.
# [2] = molecular target: T1, glu-plasminogen (Homo sapiens, UniProt P00747); experiment: Coupled enzyme assay: activation of glu-plasminogen (S2251), with and without fibrinogen; assay type: biochemical; settings: for Km / kcat: GLU-plasminogen (S2251) activation
# T1 construct: Glu-plasminogen was purified from fresh frozen plasma; from tissue; host or cells: fresh frozen plasma (lysine-Sepharose, then benzamidine-Sepharose)
# T1 sequence (P00747 20-810 limits assumed): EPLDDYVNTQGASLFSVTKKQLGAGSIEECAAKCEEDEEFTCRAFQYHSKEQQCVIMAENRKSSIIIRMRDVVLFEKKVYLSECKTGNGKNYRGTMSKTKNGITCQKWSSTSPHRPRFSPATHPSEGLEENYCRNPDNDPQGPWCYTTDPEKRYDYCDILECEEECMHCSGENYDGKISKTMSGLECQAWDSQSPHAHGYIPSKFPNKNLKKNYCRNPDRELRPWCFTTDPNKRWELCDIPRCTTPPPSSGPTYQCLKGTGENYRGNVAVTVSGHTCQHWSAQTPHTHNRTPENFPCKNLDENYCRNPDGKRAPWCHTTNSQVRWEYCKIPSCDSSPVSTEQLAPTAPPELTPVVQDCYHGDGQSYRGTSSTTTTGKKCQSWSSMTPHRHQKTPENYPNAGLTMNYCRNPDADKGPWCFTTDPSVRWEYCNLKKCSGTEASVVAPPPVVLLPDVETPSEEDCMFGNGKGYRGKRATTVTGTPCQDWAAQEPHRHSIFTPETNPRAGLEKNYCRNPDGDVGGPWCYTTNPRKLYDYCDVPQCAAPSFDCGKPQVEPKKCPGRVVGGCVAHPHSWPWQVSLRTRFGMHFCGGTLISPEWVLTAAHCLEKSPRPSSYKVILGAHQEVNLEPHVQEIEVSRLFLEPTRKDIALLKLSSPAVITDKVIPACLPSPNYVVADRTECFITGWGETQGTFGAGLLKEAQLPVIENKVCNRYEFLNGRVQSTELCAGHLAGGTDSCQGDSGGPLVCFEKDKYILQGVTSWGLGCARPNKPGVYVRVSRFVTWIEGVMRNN
# Method: Glu-plasminogen was purified from fresh frozen plasma thawed at 37° C. using a modification of the method of Deutsch and Mertz (Deutsch et al., Science 170:1095–1096 (1970), herein incorporated by reference). Plasma was passed over a lysine-Sepharose column and the column washed with 0.3 M sodium phosphate, pH 7.4, 3 mM EDTA. Plasminogen was eluted from the column with 0.2 M epsilon-aminocaproic acid, 3 mM EDTA, pH 7.4 Contaminant plasmin was removed by passing the eluted column over benzamidine sepharose 2B. The plasminogen obtained was subsequently dialyzed before use against 10 mM sodium phosphate, pH 7.4, 0.15 M NaCl.
# In the coupled enzyme assay, t-PA and S—NO-t-PA activities were assayed using the […] S2251. In selected experiments, fibrinogen stimulation of enzymatic activity was assessed at a fibrinogen concentrations of 1 mg./ml. Substrate hydrolysis was measured spectrophotometrically with a Dynatech MR 5000 Card Reader (Dynatech, Chantilly, Va.) in TBS, pH 7.4, at 25° C. Initial reaction velocity was determined from the slope of the plot of absorbance (at 405 nm)/time vs. time (Randy, M. Biochim. Biophysica Acta 704:461–469 (1982)) using glu-plasminogen concentrations ranging from 0.1–10 μM at an S2251 concentrations of 0.8 mM. Kinetic parameters were determined from initial rates by double reciprocal plot analysis.
# [3] = tested on: endothelium-denuded rabbit aortic strips; experiment: Vessel relaxation bioassay; assay type: cell-based; settings: for % Relaxation: 150 nM, contraction with 1 μM epinephrine, mean ±S.D., n=4
# Method: New Zealand White female rabbits weighing 3–4 kg were anesthetized with 30 mg/kg IV sodium pentobarbital. Descending thoracic aortae were isolated and placed immediately in a cold physiologic salt solution (Kreb's) (mM): NaCl, 118; CKl, 4.7; CaCl2, 2.5; MgSO4, 1.2; KH2PO4, 1.2; NaHCO3, 12.5; and D-glucose, 11.0. The vessels were cleaned of adherent connective tissue, and the endothelium removed by gentle rubbing with a cotton tipped applicator inserted into the lumen, after which the vessel was cut into 5 mm rings. The rings were mounted on stirrups and connected to transducers (model FT03C Grass Instruments, Quincy, Mass.) by which changes in isometric tension were recorded.
# Samples were added to a standard bioassay in which vessel rings were suspended in glass chambers containing seven mil of oxygenated Kreb's buffer, in a standard bioassay (Cook et al., Am. J. Physiol. 28:H804 (1989), herein incorporated by reference). Sustained contractions, to 2 gm tension, were induced with 1 μM epinephrine, after which the effects of t-PA and S—NO-t-PA were tested. In certain experiments the guanylate cyclase inhibitor, methylene blue, was preincubated with vessel rings for 15 minutes prior to initiation of contractions.
# The vasodilatory actions of S-nitroso-BSA were examined in a standard bioassay containing endothelium-denuded rabbit aortic strips in Kreb's buffer, pH 7.5, at 37°, as described in Example 6.
# In vessel experiments, relaxations to S—NO-BSA are expressed as-percent of tone induced by 1.0 μM norepinephrine.
# [4] = tested on: gel-filtered platelets; experiment: Platelet aggregation (nephelometric aggregometry); assay type: cell-based, human; settings: for % Normalized Extent Aggregation: Thrombin (0.024 U/ml), (150 μM) as printed, mean ±S.D.
Substance,kcat [1] [s⁻¹],Km [1] [µM],"fibrinogen stimulation greater than t-PA ([2]; 0.1 μM plasminogen, fibrinogen 1 mg./ml) [fold]",Km [2] [µM],kcat [2] [s⁻¹],degree of fibrinogen stimulation compared with wild type t-PA ([2]; physiologic (1 μM) plasminogen),catalytic efficiency greater than that of native t-PA ([2]; plasminogen activation) [%],% Relaxation [3] [%],relaxations in presence of guanylate cyclase inhibitor methylene blue ([3]; methylene blue preincubated 15 minutes),concentrations at which inhibition of platelet aggregation was demonstrable ([4]; ADP (5 μM) or thrombin (0.024 U/ml)) [nM],% Normalized Extent Aggregation [4] [%]
S—NO-t-PA: derived from the nitrosylation of tissue-type plasminogen activator (t-PA),0.52,295,3.5,3.8,0.262,equivalent,23,20 ± 7,attenuated,15 to 150,0.73 ± 0.28
"t-PA: tissue-type plasminogen activator, provided by Genentech",0.52,280,,3.5,0.200,,,2.5 ± 4,,,0.90 ± 0.15
